In the supplement of paper PMC9112550, “Optimization of the antimicrobial peptide Bac7 by deep mutational scanning” (BMC Biology, 2022):

Test system: Escherichia coli TOP10
Experiment: shrunken log2 fold change of peptide-encoding DNA abundance (4.5 h post-induction vs induction); higher = less antimicrobial activity (less host growth inhibition)
Conditions: time post-induction: 4.5 h; library: site-saturation at positions 5, 18, 19, 20
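Note: peptides expressed intracellularly from a pBAD plasmid library in pooled LB shake-flask culture, induced with 0.3% L-arabinose, DNA abundance read by NGS, three biological replicates, DESeq2 with apeglm shrinkage.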

Sequence	shrunken log2 fold change
RRIRDRPPRLPRPRPRPSTEPRP	0.301
RRIRDRPPRLPRPRPRPGGEPRP	1.41
RRIRGRPPRLPRPRPRPHMPPRP	-0.0535
RRIRHRPPRLPRPRPRPVCTPRP	-0.108
RRIRVRPPRLPRPRPRPFHDPRP	-0.0143
RRIRNRPPRLPRPRPRPRQPPRP	0.428
RRIRGRPPRLPRPRPRPHHPPRP	1.21
RRIRYRPPRLPRPRPRPDGQPRP	0.0173
RRIRRRPPRLPRPRPRPYMEPRP	-0.0924
RRIRQRPPRLPRPRPRPKISPRP	-0.144
RRIRTRPPRLPRPRPRPPTFPRP	-0.203
RRIRGRPPRLPRPRPRPCEKPRP	0.797
RRIRKRPPRLPRPRPRPAQGPRP	1.39
RRIRPRPPRLPRPRPRPNVFPRP	-0.21
RRIRCRPPRLPRPRPRPIDEPRP	-0.0366
RRIRMRPPRLPRPRPRPPYAPRP	0.291
RRIRKRPPRLPRPRPRPKCHPRP	0.182
RRIRDRPPRLPRPRPRPYTGPRP	-1.03
RRIRSRPPRLPRPRPRPIYSPRP	0.101
RRIRPRPPRLPRPRPRPFKEPRP	-0.54
RRIRYRPPRLPRPRPRPPTSPRP	-0.0241
RRIRQRPPRLPRPRPRPNSKPRP	-0.429
RRIRYRPPRLPRPRPRPSWNPRP	-1.04
RRIRCRPPRLPRPRPRPFEYPRP	-0.548
RRIRTRPPRLPRPRPRPRPTPRP	0.626

Sequence	shrunken log2 fold change
RRIRTRPPRLPRPRPRPMKNPRP	-0.146
RRIRSRPPRLPRPRPRPALNPRP	0.161
RRIRTRPPRLPRPRPRPFTYPRP	-0.00136
RRIRSRPPRLPRPRPRPRKKPRP	0.362
RRIRIRPPRLPRPRPRPYRWPRP	0.0522
RRIRVRPPRLPRPRPRPINFPRP	-0.458
RRIRYRPPRLPRPRPRPAHIPRP	-0.467
RRIRLRPPRLPRPRPRPCTPPRP	-0.172
RRIRIRPPRLPRPRPRPDKHPRP	-0.979
RRIRPRPPRLPRPRPRPYFDPRP	-0.561
RRIRARPPRLPRPRPRPNVYPRP	-0.115
RRIRRRPPRLPRPRPRPRTDPRP	0.438
RRIRCRPPRLPRPRPRPLNLPRP	-0.489
RRIRQRPPRLPRPRPRPLHPPRP	-0.0917
RRIRSRPPRLPRPRPRPMTMPRP	-0.245
RRIRGRPPRLPRPRPRPTDNPRP	0.283
RRIRMRPPRLPRPRPRPKYEPRP	0.741
RRIRCRPPRLPRPRPRPIHTPRP	-0.527
RRIRWRPPRLPRPRPRPMSIPRP	-0.191
RRIRIRPPRLPRPRPRPGQVPRP	-0.0393
RRIRPRPPRLPRPRPRPDYVPRP	-0.343
RRIRERPPRLPRPRPRPQSSPRP	-0.533
RRIRARPPRLPRPRPRPTDKPRP	0.391
RRIRKRPPRLPRPRPRPKMLPRP	0.185
RRIRHRPPRLPRPRPRPDQFPRP	-0.441

Sequence	shrunken log2 fold change
RRIRYRPPRLPRPRPRPFKSPRP	-0.0165
RRIRQRPPRLPRPRPRPICEPRP	0.0925
RRIRGRPPRLPRPRPRPPSQPRP	0.882
RRIRYRPPRLPRPRPRPESIPRP	-0.42
RRIRCRPPRLPRPRPRPTLEPRP	0.0452
RRIRVRPPRLPRPRPRPTERPRP	0.302
RRIRLRPPRLPRPRPRPDMCPRP	-0.0164
RRIRDRPPRLPRPRPRPNLHPRP	-0.0379
RRIRFRPPRLPRPRPRPTIRPRP	-0.41
RRIRHRPPRLPRPRPRPKDNPRP	-0.201
RRIRIRPPRLPRPRPRPASHPRP	-0.106
RRIRYRPPRLPRPRPRPGISPRP	-0.0863
RRIRERPPRLPRPRPRPRNYPRP	-0.491
RRIRNRPPRLPRPRPRPVQRPRP	-0.186
RRIRRRPPRLPRPRPRPSVFPRP	0.141
RRIRCRPPRLPRPRPRPMWAPRP	0.378
RRIRDRPPRLPRPRPRPICLPRP	0.0829
RRIRYRPPRLPRPRPRPWCCPRP	-0.207
RRIRFRPPRLPRPRPRPAGDPRP	0.378
RRIRQRPPRLPRPRPRPISTPRP	-0.503
RRIRGRPPRLPRPRPRPQSTPRP	0.649
RRIRKRPPRLPRPRPRPVVSPRP	-0.292
RRIRARPPRLPRPRPRPFPEPRP	0.319
RRIRWRPPRLPRPRPRPAYEPRP	-0.0308
RRIRERPPRLPRPRPRPNGDPRP	-0.0249

Sequence	shrunken log2 fold change
RRIRGRPPRLPRPRPRPMPFPRP	0.118
RRIRRRPPRLPRPRPRPNKKPRP	-0.272
RRIRFRPPRLPRPRPRPVIFPRP	0.774
RRIRKRPPRLPRPRPRPSWVPRP	-0.0457
RRIRDRPPRLPRPRPRPCPEPRP	-0.0682
RRIRKRPPRLPRPRPRPHLPPRP	0.0692
RRIRRRPPRLPRPRPRPMSVPRP	-0.0792
RRIRFRPPRLPRPRPRPCIPPRP	0.0633
RRIRWRPPRLPRPRPRPKGIPRP	-0.0761
RRIRNRPPRLPRPRPRPFWHPRP	0.189
RRIRIRPPRLPRPRPRPVQDPRP	-1.09
RRIRKRPPRLPRPRPRPRTQPRP	0.605
RRIRRRPPRLPRPRPRPYFEPRP	-0.562
RRIRMRPPRLPRPRPRPPQNPRP	1.13
RRIRSRPPRLPRPRPRPGYIPRP	-0.0571
RRIRSRPPRLPRPRPRPSMMPRP	-0.105
RRIRRRPPRLPRPRPRPTQPPRP	0.155
RRIRARPPRLPRPRPRPQQQPRP	0.946
RRIRTRPPRLPRPRPRPHEWPRP	0.00742
RRIRMRPPRLPRPRPRPLLYPRP	0.0402
RRIRLRPPRLPRPRPRPWPEPRP	0.243
RRIRLRPPRLPRPRPRPRQFPRP	0.196
RRIRFRPPRLPRPRPRPSHQPRP	-0.229
RRIRERPPRLPRPRPRPWNQPRP	-0.124
RRIRSRPPRLPRPRPRPFWAPRP	-0.00411

Sequence	shrunken log2 fold change
RRIRERPPRLPRPRPRPDCCPRP	-0.157
RRIRCRPPRLPRPRPRPIIVPRP	-0.425
RRIRQRPPRLPRPRPRPSLLPRP	-0.216
RRIRRRPPRLPRPRPRPEGYPRP	0.202
RRIRCRPPRLPRPRPRPYIWPRP	-0.0216
RRIRYRPPRLPRPRPRPMWGPRP	0.171
RRIRCRPPRLPRPRPRPYKIPRP	-0.785
RRIRARPPRLPRPRPRPGCCPRP	0.841
RRIRIRPPRLPRPRPRPWAYPRP	0.0382
RRIRFRPPRLPRPRPRPLKAPRP	0.693
RRIRSRPPRLPRPRPRPVKMPRP	0.0674
RRIRDRPPRLPRPRPRPLENPRP	0.035
RRIRMRPPRLPRPRPRPMFIPRP	-0.403
RRIRVRPPRLPRPRPRPITTPRP	-0.304
RRIRGRPPRLPRPRPRPRYTPRP	0.178
RRIRNRPPRLPRPRPRPASRPRP	0.12
RRIRSRPPRLPRPRPRPIQDPRP	0.00805
RRIRCRPPRLPRPRPRPNKLPRP	-0.283
RRIRYRPPRLPRPRPRPDLHPRP	-0.0267
RRIRCRPPRLPRPRPRPWNCPRP	-0.142
RRIRRRPPRLPRPRPRPRRQPRP	0.554
RRIRHRPPRLPRPRPRPETYPRP	-0.00431
RRIRDRPPRLPRPRPRPILRPRP	-0.0119
RRIRFRPPRLPRPRPRPNKNPRP	-0.384
RRIRPRPPRLPRPRPRPYMNPRP	-1.01
